The assay addresses SroF^Phi3T, master repressor of phage Phi3T (recombinant) (Bacillus phage Phi3T). The assay is described as follows: BLI. A general note: Biolayer interferometry detects binding as a change in optical thickness at a sensor tip.

The source of these data is publication doi:10.1101/2025.11.27.690993.

Broadly, the Kd is the constant that tells how readily two partners part at equilibrium.

Turning to “Sar^Phi3T, shorter annotation lacking the first 10 amino acids (recombinant) (natural protein)”, the Kd was 21.7 nM.
